Data: the nanobody polyreactivity screen of Harvey et al. (2022)

Test: yeast display, Sf9 membrane polyspecificity reagent, FACS + sequencing; frameworks hold sequencing errors
In short: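 Nanobodies came from a synthetic yeast display library in Saccharomyces cerevisiae BJ5465, induced with galactose for 36–48 hours and stained for 1 hour at 4 °C with 10% biotinylated, detergent-solubilized Sf9 membrane reagent. Cells were enriched on streptavidin microbeads and then FACS-sorted, with low and high (top ~1%) gates set on anti-HA fluorescence for expression and streptavidin fluorescence for reagent binding. Each polyreactivity label reflects the gate a clone came from. Genes were amplified by colony PCR, sequenced by MiSeq 2 × 250 and filtered by CDR length.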

QVHLVESGGGLVQAGGSLRLSCAASGRPFYIYAMGWYRPAPGKERELVAAITWSGGTTYYADSVKGRFTISRDTANNTVYLQMNSQKPQDTAVYYCNASFRRGFDYWGQGTQVTVSS
polyreactivity (PSR sort gate): low polyreactivity

QVQLVESGGGLVQAGGSLRLSCPASGFIFWYNVMGWSRQAPGKERELVAAISGRGGSTYYADSVKGRFTISRDNAKNTVYLQMNSLKPEDTAVYYCNTFSYRSGAYGYWGQGTQVTVSS
polyreactivity (PSR sort gate): high polyreactivity

QVQLVESGGGLVQAGGSLRISCAASGFILGYKDMGWYRQAPGKERELVAAISSSGGSTYYADSVKGRFTISRDNSKNTVYLQMNILKPEDTAVYYCGLPYQTSYGEYDYWGQGTQVTVSS
polyreactivity (PSR sort gate): low polyreactivity

QVQLVESGGGLVQAGGSLRLSCAASGRIFYTYAMGWYRQAPGKERELVAAINRSGSSTYYADSVKGRFTISRDNAKNTVYLQMNSLKPEDTAVYYCNAQSYRYYGWVLTDVDYWGQGTQVTVSS
polyreactivity (PSR sort gate): low polyreactivity

QVQLVESGGGLVQAGGSLRLSCAASGYSFYYYAMVWYRQAPGKERELVAAITSGDSTYADSVKGRFTISRDNAKNTVYLQMNSLKPEDTAVYYCNRDTDYGFDYWGQGTQVTVSS
polyreactivity (PSR sort gate): low polyreactivity

QVQRVESGGGLVQAVGSLRLSCAPSGIIIPVKAMGWYRQAPGKERELVAAITTGGSTNYADSVKGRFTISRDNAKNNVYLQMNSLKPEDTAVYYCAADTARTRIFDYWGQGTQVTVSS
polyreactivity (PSR sort gate): low polyreactivity

QVQLVESGGGLVQAGGSLRLSCAASGITFKPNTMGWYRQAPGKERELVAAIDWSGSSTYYADSVKGRFTISRDNAKNTVYLQMISLKPEDTAVYYCAADDYEYFWSYDYWGQGTQVTVSS
polyreactivity (PSR sort gate): low polyreactivity

QVQLVESGGGLVQAGGSLRLSCAASGRIFDKNAMGWYRQAPGKERELVAAINRSGGRTYYADSVKGRFTISRDNAKNTVYLQMNSLKPEDTAVYYCAADTQGSRYDYWGQGTQVTVSS
polyreactivity (PSR sort gate): high polyreactivity

QVQLVESGGGLVQAGGSLRLSCAASGLIFFSYAMGWYRQAPGKERELVAAISRRGGRTYYADSVKGRFTISRDNAKNTVYLQMNSLKPEDTAVYYCAADSGYVWYADDYWGQGTQVTVSS
polyreactivity (PSR sort gate): low polyreactivity

QVQLVESGGGLVQAGGSLRLCCAASGIIFYSYAMGWYRQAPGKEREFVAAITNSDGSTYYADSVKGRFTISRDNAKNTVYLQMNSVKPEDTAVYMFYWGQGTQVTVSS
polyreactivity (PSR sort gate): low polyreactivity

QVQLVESGAGLVQAGGRLRLSCAATGLTFYFYVMGWYRQAPGKERELVADISTSDDSTYYADSVKGRFTISRDNAKNTVYLQMNSLKPEDTSVYYCATATRTYSAWYEYDYWGQVTQVTVSS
polyreactivity (PSR sort gate): low polyreactivity

QVQLVESGGGLVQAGGSLRLSCAASGRTFVVNAMGWYRQATGKERELVAAITRRGGITYYADSVKGRFTISRDTAKNTVYFQMNSLKPEDTAVLYCAADRSYYPDTRSTYGYNYWGQGTQVTVSS
polyreactivity (PSR sort gate): low polyreactivity

QVQLVESGGGLVQAGGSLRLSCAASGLIFDVNTMGWYRQAPGKERELVAAITGSGGRTYYADSVKGRFTISRDNGKNTVYLQMNSLKPEDTAFYYCNADTSYVGFDYWGQGTQVTVSS
polyreactivity (PSR sort gate): low polyreactivity

QVKLVESGGGLVQAGGSLRLSCAASGFTFSRNTRGWYRQAPGKERELVAAIDSTGGSTYYADSEKGRFTISRDNAKNTVYLQMNCLNPEDTAVYYCATVLPDGRVRLRILWGKRVWYDYWGQGTHVTVSS
polyreactivity (PSR sort gate): low polyreactivity

QVQLVESGGGLVQAGGSLRLSCAASGSIFIAYTMGWYRQAPGKERELVAAISQSGGGTHYADSVKGRFTISRDNAKNTVYLQMNSLKPEDTAVYYCAADRPATSDYTGYDYWGQGTQVTVSS
polyreactivity (PSR sort gate): low polyreactivity

QVQLVESGGGLVQAGGSLRLSCAASGRIFSYYAMRWFRQAPGKERELVAAISSGGSTNYADSVKGRFTISRDNAKNTVYLQMNSLKPEDTAVYYCNAVRGWTTRYDYWGQGTQVTVSS
polyreactivity (PSR sort gate): high polyreactivity

QVQLVESGGGLVPSGGSLRLSCAASGGIFYFNAMGWYRQAPGKERELVASITWSGGNTYYADSVKGRFTISRDNAKNTVSLQMNSLKPEDTAVYYSAADTQEYRPTYDYWGQGTQVTVSS
polyreactivity (PSR sort gate): low polyreactivity

QVQLVESGGGLVQAGGSLRLTCAASGRIFTSYAMGWYRQAPGKERELVATITGSTASTYYADSVKGRFTISRDNAKYTVYLQMNSLKPEDTAVYYCAARSVGKRGYDYWGQCTQVTVSS
polyreactivity (PSR sort gate): high polyreactivity

QVQLVESGGGLVQAGGSLRLSCAASGFTFTPYAMGWYRQAPGKERELVAAITWRGGTYYADSVKGRFTISRDNAKNTVYLQMNSLKPEDTAVYYCAARVWRLYPSTYDYWGQGTQVTVSS
polyreactivity (PSR sort gate): high polyreactivity

QVQLVESGGGLVQAGGSLRLSCAASGRIFPYYAMGWYRQAPGKERELVAAISYSGGRTYYADSVKGRFTISRDNAKNTVYLQMNSLKPEDTAVYYCSAVVYLGYEYDYWGQGTQVTVSS
polyreactivity (PSR sort gate): low polyreactivity

QVQLVESGGGLVQAGGSLRLSCAASGSIFKVYAMGWYRQAPGKERELVAAITGGGRTYYADSVKGRFTISRDNAKNTVYLQMNSLKPEDTAVYYCNAVRGGYHVRYDYWGQGTQVTVSS
polyreactivity (PSR sort gate): high polyreactivity

QVQLVESGGGVVQAGGSLRLSCAASGRIFHYNAMGWYRQAPGKERELVAAISTGGSSNYADSVKGRFTISRDNAKNTVYLQMNSLKPEDTAVYYCAADHPVTYPTSKFDYWGQGTQVTVSS
polyreactivity (PSR sort gate): low polyreactivity

QVQLVESGGGLVQAGGSLRLICAASGSIFVNNAMGWYRQAPGKERELVAAISRSGGSTYYADSVKGRFTISRDNAKNTVYLQMNSLKPEDTAVYYCATVHRSSTPPEFNYWGQGTQVTVSS
polyreactivity (PSR sort gate): high polyreactivity

QVQLVESGGGLVQAGGSLRLSCAASGSIFPPNAMAWYRQAPGKEREFVAAITESGGSTRYADSVKGRFTISRDNAKNTVYLQMNSLKPEDTAVYYCAARSYRYSTHGTYRYYYWGQGTQVTVSS
polyreactivity (PSR sort gate): high polyreactivity

QVQLVESGGGLVQAGGSLRLICAASGRILDIYALGWYRQAPGKERELVASISGSGSSTYYADSVKGRVTISRDNAKNTVYLQMNSLKPEDSAVYYCNAARSQGYEYATYGYWGQGSQVTVSS
polyreactivity (PSR sort gate): low polyreactivity

QVQLVESGGGLVQAGGSLRLSCAASGRIFSVYAMGWYRQAPGKEREFVASISWRGGRTYYADSVKGRFTISRDNAKNTVYLQMNSLKPEDTAVYYCAAVSYPAVYGFDYWGQGTQVTVSS
polyreactivity (PSR sort gate): high polyreactivity

QVQLVESGGGLVQAGGSLRLTCAASGFTFGSYVMGWYRQAPGKERELVADISIRGGSTYYADSVKGRFTISRDNAKNTVYLQMHSLKPEDTAVYYCNADPAFYYWEGIVGGADYDYWGIGTQVTVSS
polyreactivity (PSR sort gate): low polyreactivity

QVQLVESGGGLVQAGGSLRLSCAASGRICDYNVMGWYRQAPGKERELVADITSSGGSTYYADSVKGRFTISRDNAKNTVYLQMNSLKPEDTAVYYCYISYFTFYDDFYYWGQGTQVTVSS
polyreactivity (PSR sort gate): low polyreactivity

QVQLEESGGGLVQAGGSLRLSCAASGRTFYIYAMGWYRQAAGKERELVAAITWSGGTTYYADSVKGRFTISRDNAKNTVYLQMNSLKPEDTAVYDCNAGATYVKRRRGRKYDYWGQGTQVTVSS
polyreactivity (PSR sort gate): low polyreactivity

QVQLVESGGRLVQAGGSLRLSCAASGSIFDNYVMGWYRQAPGKERELVAAINSSGGSTYYADSVKGRFTISRDNAKNTVYLQMNSLKPEDTAVYYCIATDGITPYDLTDIEFDYWGQGTQVTVSS
polyreactivity (PSR sort gate): low polyreactivity

QVQLVESGGGLVQAGGSLRLSCAASGRTFYDNTMGWYRQAPWKERELVAAISRGGSTYADSVKGRFTISRDNAKNTVYLQMNSLKPEDTAVYYCNKRSITTEYGYWGQGTQVTVSS
polyreactivity (PSR sort gate): low polyreactivity

QFQLVESGGGLVQAGGSLRLSCAASGFIFGGNVMGWYRQAPGKERELVAAITSSATTYYADSVKGRFTISRDNAKNTVYLQMNSLKREDTAVYYCAADTWTIVDYGYWGQGTQVTVSS
polyreactivity (PSR sort gate): low polyreactivity
